Paper PMC6916386

B1: Single stranded nucleic acid binding protein (Sbp1), wild type, galactose-inducible with ZZ (protein A) tag, from wild-type yeast R153 [modified: arginine-methylated in yeast … (parent)
chain 1: MSAEIEEATNAVNNLSINDSEQQPRAPTHKTVIDPEDTIFIGNVAHECTEDDLKQLFVEEFGDEVSVEIPIKEHTDGHIPASKHALVKFPTKIDFDNIKENYDTKVVKDREIHIKRARTPGQMQRGGFRGRGGFRGRGGFRGGFRGGYRGGFRGRGNFRGRGGARGGFNGQKREKIPLDQMERSKDTLYINNVPFKATKEEVAEFFGTDADSISLPMRKMRDQHTGRIFTSDSANRGMAFVTFSGENVDIEAKAEEFKGKVFGDRELTVDVAVIRPENDEEEIEQETGSEEKQE
chain 2: MTDETAHPTQSASKQESAALKQTGDDQQESQQQRGYTNYNNGSNYTQKKPYNSNRPHQQRGGKFGPNRYNNRGNYNGGGSFRGGHMGANSSNVPWTGYYNNYPVYYQPQQMAAAGSAPANPIPVEEKSPVPTKIEITTKSGEHLDLKEQHKAKLQSQERSTVSPQPESKLKETSDSTSTSTPTPTPSTNDSKASSEENISEAEKTRRNFIEQVKLRKAALEKKRKEQLEGSSGNNNIPMKTTPENVEEKGSDKPEVTEKTKPAEEKSAEPEVKQETPAEEGEQGEKGQIKEESTPKVLTFAERLKLKKQQKEREEKTEGKENKEVPVQEETKSAIESAPVPPSEQVKEETEVAETEQSNIDESATTPAIPTKSDEAEAEVEAEAGDAGTKIGLEAEIETTTDETDDGTNTVSHILNVLKDATPIEDVFSFNYPEGIEGPDIKYKKEHVKYTYGPTFLLQFKDKLNVKADAEWVQSTASKIVIPPGMGRGNRSRDSGRFGNNSSRGHDFRNTSVRNMDDRANSRTSSKRRSKRMNDDRRSNRSYTSRRDRERGSYRNEEKREDDKPKEEVAPLVPSANRWVPKFKSKKTEKKLAPDGKTELLDKDEVERKMKSLLNKLTLEMFDAISSEILAIANISVWETNGETLKAVIEQIFLKACDEPHWSSMYAQLCGKVVKELNPDITDETNEGKTGPKLVLHYLVARCHAEFDKGWTDKLPTNEDGTPLEPEMMSEEYYAAASAKRRGLGLVRFIGFLYRLNLLTGKMMFECFRRLMKDLTDSPSEETLESVVELLNTVGEQFETDSFRTGQATLEGSQLLDSLFGILDNIIQTAKISSRIKFKLIDIKELRHDKNWNSDKKDNGPKTIQQIHEEEERQRQLKNNSRSNSRRTNNSSNRHSFRRDAPPASKDSFITTRTYSQRNSQRAPPPKEEPAAPTSTATNMFSALMGESDDEE

Variants of: B1
Experiment: glutathione pull-down, PAP blot band quantified
Conditions: with eukaryotic translation initiation factor 4G1 fused to GST (eIF4G1-GST) [yeast]; purified eIF4G1-GST incubated with yeast lysate; n = 3; parent: 100; read off a plot

Question: With chain 1 R125A R129A R131A R135A R137A R141A R145A R149A R153A R155A R159A R161A R165A as the variant, how does the percent of parent read?
Answer: Its percent of parent is 25 % binding.
